Biological target: recombinant N-terminal His6-tagged GlgB (Synechocystis sp. PCC 6803) (UniProt P52981)
Test: MST

Sequence of recombinant N-terminal His6-tagged GlgB (Synechocystis sp. PCC 6803) (P52981 whole entry): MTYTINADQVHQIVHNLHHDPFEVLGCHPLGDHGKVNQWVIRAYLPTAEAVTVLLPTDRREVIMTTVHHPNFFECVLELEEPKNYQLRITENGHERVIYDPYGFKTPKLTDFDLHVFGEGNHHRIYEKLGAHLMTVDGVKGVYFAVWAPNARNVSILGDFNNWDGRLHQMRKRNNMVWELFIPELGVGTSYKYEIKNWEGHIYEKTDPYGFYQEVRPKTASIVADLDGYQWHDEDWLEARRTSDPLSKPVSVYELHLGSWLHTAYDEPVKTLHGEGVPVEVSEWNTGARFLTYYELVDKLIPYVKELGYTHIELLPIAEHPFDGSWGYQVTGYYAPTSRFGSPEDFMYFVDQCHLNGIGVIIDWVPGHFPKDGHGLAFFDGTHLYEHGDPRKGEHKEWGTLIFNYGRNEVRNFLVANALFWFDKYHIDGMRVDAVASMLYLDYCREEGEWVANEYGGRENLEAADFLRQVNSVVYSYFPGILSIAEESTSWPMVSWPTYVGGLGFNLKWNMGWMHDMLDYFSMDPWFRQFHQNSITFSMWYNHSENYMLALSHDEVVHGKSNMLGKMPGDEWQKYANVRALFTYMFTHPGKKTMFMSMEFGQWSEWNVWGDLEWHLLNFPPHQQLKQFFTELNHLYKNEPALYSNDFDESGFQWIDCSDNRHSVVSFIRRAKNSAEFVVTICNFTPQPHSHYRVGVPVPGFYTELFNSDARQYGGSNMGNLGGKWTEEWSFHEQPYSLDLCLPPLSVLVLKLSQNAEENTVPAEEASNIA

Kd: 220 nM
Substance: recombinant C-terminal StrepII-tagged ScSbtB (SbtB from Synechocystis sp. PCC 6803) (from UniProt P73954 1-110) (natural protein)

— publication PMC8654305
